# How the values were obtained:
# [1] = target: Q9SE50
# [2] = target: T1, T7-tagged AtBG1 (Arabidopsis thaliana β-glucosidase 1) (Arabidopsis thaliana, UniProt Q9SE50 27-528); assay: co-immunoprecipitation with anti-T7 antibody, anti-HA Western blot, densitometry
# T1 construct: Co-expressed with AtBG1:HA in protoplasts; pulled down with anti-T7 antibody; also called AtBG1:T7; not shown: T7 tag
# T1 sequence (looked up): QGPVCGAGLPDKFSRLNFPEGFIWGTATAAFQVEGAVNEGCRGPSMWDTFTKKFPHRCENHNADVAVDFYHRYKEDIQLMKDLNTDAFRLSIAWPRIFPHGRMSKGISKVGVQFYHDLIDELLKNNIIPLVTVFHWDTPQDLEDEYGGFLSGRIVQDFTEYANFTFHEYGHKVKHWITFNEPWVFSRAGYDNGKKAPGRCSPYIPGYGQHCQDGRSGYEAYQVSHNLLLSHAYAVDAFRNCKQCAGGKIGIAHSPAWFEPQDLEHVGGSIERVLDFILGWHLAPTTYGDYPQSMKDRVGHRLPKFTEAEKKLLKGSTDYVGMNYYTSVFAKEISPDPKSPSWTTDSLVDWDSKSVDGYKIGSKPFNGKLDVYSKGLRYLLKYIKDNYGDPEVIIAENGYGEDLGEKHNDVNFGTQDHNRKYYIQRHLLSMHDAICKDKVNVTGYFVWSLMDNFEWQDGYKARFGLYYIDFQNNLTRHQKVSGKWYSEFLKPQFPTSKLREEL
# Method: The present inventors also investigated the mechanism by which dehydration stress activates AtBG1. […] Thus, the present inventors investigated whether the mechanism by which dehydration stress activates AtBG1 is attributed to AtBG1 polymerization. Protein extracts were prepared from protoplasts co-transformed with two differently tagged forms of AtBG1, AtBG1:HA and AtBG1:T7, according to the same method as described in the above Example, and used for co-immunoprecipitation with anti-T7 antibody. Immunoprecipitates were analyzed by Western blotting using anti-HA antibody to investigate the interaction between AtBG1 molecules. As a result, HA-tagged AtBG1 was detected in the precipitate immunoprecipitated with T7-antibody (FIG. 35). Furthermore, the amount of HA-tagged AtBG1 in the precipitate was increased by approximately 3-fold upon treatment of protoplasts with 10% PEG 8000, a chemical that induces dehydration stress, for 12 hours (measured by densitometery software, FIG. 35). Therefore, the present inventors concluded that AtBG1 undergoes homomeric interactions, which are enhanced under conditions of dehydration stress.
binder,measurement,setting,value
"HA-tagged AtBG1 (Arabidopsis thaliana β-glucosidase 1) (enzyme, UniProt Q9SE50 27-528, looked up, Expressed in Arabidopsis protoplasts or in 'rescued atbg1' plants and tested in protein extracts; also called AtBG1:HA; AtBG1::HA; not shown: virus HA (hemagglutinin) tag) QGPVCGAGLPDKFSRLNFPEGFIWGTATAAFQVEGAVNEGCRGPSMWDTFTKKFPHRCENHNADVAVDFYHRYKEDIQLMKDLNTDAFRLSIAWPRIFPHGRMSKGISKVGVQFYHDLIDELLKNNIIPLVTVFHWDTPQDLEDEYGGFLSGRIVQDFTEYANFTFHEYGHKVKHWITFNEPWVFSRAGYDNGKKAPGRCSPYIPGYGQHCQDGRSGYEAYQVSHNLLLSHAYAVDAFRNCKQCAGGKIGIAHSPAWFEPQDLEHVGGSIERVLDFILGWHLAPTTYGDYPQSMKDRVGHRLPKFTEAEKKLLKGSTDYVGMNYYTSVFAKEISPDPKSPSWTTDSLVDWDSKSVDGYKIGSKPFNGKLDVYSKGLRYLLKYIKDNYGDPEVIIAENGYGEDLGEKHNDVNFGTQDHNRKYYIQRHLLSMHDAICKDKVNVTGYFVWSLMDNFEWQDGYKARFGLYYIDFQNNLTRHQKVSGKWYSEFLKPQFPTSKLREEL",ABA-GE hydrolyzing activity (ABA content by ELISA) of high against low molecular weight forms of AtBG1 after gel filtration and anti-HA immunoprecipitation,[1],High molecular weight forms exhibited 4-fold higher AtBG1 activity
same,fold increase of the co-precipitated amount upon 10% PEG 8000 (12 hours) against untreated protoplasts,[2],~3 fold

# Source: US20090138983A1 (POSTECH FOUNDATION, published 2009)
